Numbering of substitutions follows the chain as printed.
B1: S1-R3-T1-C4 (Ab_8) scFv-Fc (scFv, V domains shown)
VH: QVQLVQSGAEVKKPGSSVKVSCKASGGTFSSYAISWLRQAPGQGLEWMGWINPNSGGTNYAQKFQGRVTMTRDTSISTAYMELSRLRSDDTAVYYCARGSGGYYLGWGQGTLVTVSS
VL: QPGLTQPPSVSKGLRQTATLTCTGNSNNVGNQGAAWLQQHQGHPPKLLSYMNNNRPPGISERFSASRSGNTASLTITGLQPEDEADYYCSAWDSSLSRWVFGGGTKLSVL
B2: Ab_14 scFv-Fc (scFv, V domains shown)
VH: QVQLQQSGPGLVKPSQTLSLTCAISGDSVSSNSAAWNWIRQSPARGLEWLGRTYYRSRWYNDYAISMKSRITINPDTSKNQFSLQLESVTPEDTAVYYCAREIRGFDYWGQGTLVTVSS
VL: QSVLTQPPSASGSPGQSVTISCTGTSSDVGAYNFVSWYQHHPGKAPKLIIYDFNKRPSGVPDRFSGSKSGNTASLTVSGLQADDEADYYCSSYAGSNNFDVVFGGGTKLTVL
B3: S1-RBD-R3-T1-B12 Ab (Ab_31) scFv-Fc (scFv, V domains shown)
VH: QVQLVQSGAEVKKPGSSVKVSCKASGGTFSSYTISWVRQAPGQGLEWMGGIIPILGTPNYAQKFQDRVAITADKSTSTAYMELSSLRSEDTAVYYCAVGSGWYSGFDYWGQGTLVTVSS
VL: NFMLTQPHSVSESPGKTVTISCTGSSGSIASNYVQWYQQRPGSAPTTVIYEDSQRPSGVPDRFSGSIDSSSNSASLTISGLKTEDEADYYCQSFHNSNPVIFGGGTKLTVL
B4: Ab_18 scFv-Fc (scFv, V domains shown)
VH: EVQLVQSGGGVVQPGRSLRVSCAASGFSFSRYGMHWVRQAPGKGLEWVAFIRHDGSKKYYADSVEGRFTISRDNSRNTVSLEMNSLRGEDTAVYYCAKDGRLEAALDDWGQGTLVTVSS
VL: NFMLTQPHSMSGSAGKTVTVSCIRSSGSIANNFVQWYQQRPGSAPTTVIYEDNQRPSGVPDRFSGSIDSSSNSASLTISGLKTEDEADYYCQSYDSSNLVFGGGTRLTVL
B5: Ab_26 scFv-Fc (scFv, V domains shown)
VH: QVQLVQSGGGLVQPGRSLRLSCAASGFTFDDYAMHWVRQVPGKGLEWVSGIDWNSGVIGYADSVKGRFTISRDNAKNSLYLQMNSLRAEDTALYYCAKDAYSYGFLGAFDIWGQGTMVTVSS
VL: LPVLTQPPSVSVAPGQTASITCGGDNIRTKGVHWYQQKPGQAPLLVIYYASDRPSGIPERFSGSSSGNTATLTISRVEAGDEADYYCQVWDSSSDLVVFGGGTTLTVL
B6: RBD-R3-E1-A5 Ab (Ab_30) scFv-Fc (scFv, V domains shown)
VH: QVQLVQSGGGVVQPGKSLRLSCTASGFTFSDFPIHWVRQAPGKGLEWVGVISYDGNIKYYGDSVKGRFTISRDNAKNSLYLQMNSLRVEDTAVYYCARGGSSFDIWGQGTTVTVSS
VL: SYELTQPPSVSEAPRQRVTISCSGSTSNIGNNAVSWYQHLPGKAPKLLIYYNERLPSGVSDRFSGSKSGTSASLAISGLRSEDEADYYCAAWDDSLSGHVVFGGGTKLTVL
B7: Ab2-7 IgG (antibody, V domains shown)
VH: QVTLKESGPTRVKPTQTLTLTCTFSGFSLSTTGVGVGWIRQPPGKALEWLALIYWNDDKRYSPSLKSRLTITKDTSKNQVVLTMTNMDPVDTATYYCARISGSGYFYPFDIWGQGTTVTVSS
VL: NFMLTQPHSVSESPGKTVTISCTRSSGSIASNYVQWYQQRPGSSPTTVIYEDNQRPSGVPDRFSGSIDSSSNSASLTISGLKAEDEADYYCQSYDSSSLWVFGGGTKLTVL
B8: Ab_25 scFv-Fc (scFv, V domains shown)
VH: QVQLVQSGGGLVQPGGSLRLSCAASGFTFSSYWMSWVRQAPGKGLEWVANIKQDGSEKYYVDSVKGRFTISRDNAKNSLYLQMNSLRAEDTAVYYCARGFYYYGAFDIWGQGTTVTVSS
VL: B7 VL with R24G, S44A, D68G, A83T, S98N, L99H
B9: Ab_28 scFv-Fc (scFv, V domains shown)
VH: QVTLKESGPGLVNPSETLSLTCTVSGASISNSFWSWIRQSPGKGLEWIGYTSYSGNSIYNPSLKSRLTMSIDTSKNQLSLNLRSLTAADTAVYYCARREWIKGHFDYWGQGTLVTVSS
VL: B3 VL with S26G, S53N, F94Y, H95D, N96S, I101V
B10: S1-RBD-R3-T1-F5 (Ab2-7) scFv-Fc (scFv, V domains shown)
VH: B7 VH
VL: B7 VL
B11: Ab_20 scFv-Fc (scFv, V domains shown)
VH: QVQLVQSGGGSVKPGGSLRLSCAASGYRLSDYYMHWVRQAPGKGLEWVANIKQDGSEKYYVDSVKGRFTISRDNAKNSLYLQMNSLRAEDTAVYYCARVRGWSRGYFDYWGQGTLVTVSS
VL: B7 VL with R24G, S44A, T77L, A83T, S98N, L99H
B12: S1-RBD-R3-T1-C7 Ab (Ab_29) scFv-Fc (scFv, V domains shown)
VH: QVQLQQSGPGLVKPSQTLSLTCAISGDSVSSYSDAWNWIRQSPSRGLEWLGRTYYRSKWYNDYAVSVKSRITINPDTSKNQFSLQLSSVTPEDTAVYYCAREIVATTPFRNYYYGMDVWGQGTTVTVSS
VL: B7 VL with K16N, S25T, Y50F, E51Q, N53K, Q54L, A83T
B13: Ab_13 scFv-Fc (scFv, V domains shown)
VH: B7 VH with T10K, R11L, T32S, N56D, T72A, N78Y, T117M, S122A
VL: B7 VL with S44A, A83T, S98N
B14: Ab_23 scFv-Fc (scFv, V domains shown)
VH: EVQLVQSGAEVKKPGSSVKVSCRSSGGTFSTYGITWVRQAPGQGLEWMGRIIPSLGIPNYAQKFQGRVTITADTSVSTAWMELSSLESDDTAIYYCARENIDLATNDFWGQGTLVTVSS
VL: QSALTQPPSASGSPGQSVTISCTGTSRDIGAYGYVSWYQQVPGKAPKLIIYEVRNRPSGVSSRFSGSKSGNTASLTISGLQAEDEADYYCSSYTSSSTLDVVFGGGTKLTVL
B15: Ab_19 scFv-Fc (scFv, V domains shown)
VH: EVQLVESGAEVKKPGESLKISCKGSGYSFTSYWIGWVRQMPGKGLEWMGIIYPGDSDTRYSPSFQGQVTISADKSISTAYLQWSSLKASDTAMYYCARRGDLDAFDIWGQGTMVTVSS
VL: QPGLTQPPAASGTPGQRVTVSCSGASANIGSNAVSWFKQFPETAPRLLISGNTHRPSGVPDRVSGSKSGTSASLTISGLQSDDEADYYCAAWDDSLNGYVFGSGTKVTVL
B16: Ab_27 scFv-Fc (scFv, V domains shown)
VH: QVQLVQSGTEVKKPGASVKVSCKASGYSFTGSHLHWVRQAPGQGLEWMGWINPDSGVINYAQKFQGRVTLTRDTSISTAYMELSGLRSDDTAVYYCARDKAIGYVWALDYWGQGTLVTVSS
VL: QSALTQPPSVSGSPGQSVTISCTGTSSDVGTYNRVSWYQQPPGKAPKLMIYEVSNRPSGVSNRFSGSKSGNTASLTISGLQAEDEADYYCSSYTRTFTYVFGTGTKVTVL
B17: RBD-R3-E1-B3 Ab (Ab_32) scFv-Fc (scFv, V domains shown)
VH: QVQLVQSGAEVKKPGESLKISCKGSGYSFTSYWIGWVRQMPGKGLEWMGIIYPGDSDTRYSPSFQGQVTISADKSISTAYLQWSSLKASDTAMYYCARGWQWHDYWGQGTLVTVSS
VL: QTVVTQEPAVSVALGQTVRITCQGDSLRSYYASWYQQKPGQAPVLVVYDKDKRPSGIPDRFSGSTSGNTASLTITGAQAEDEADYYCNSRDRSDNHVVFGGGTKLTVL
B18: Ab_16 scFv-Fc (scFv, V domains shown)
VH: QVQLVQSGGGVVQPGRSLRLSCAASGFTFSNYGMHWVRQAPGKGLEWVALIWERGSKKDYADSVKGRFTVSRDNSKNTLYLQMNSLRPEDTAVYFCAREGISMTGAEYFQHWGQGTLVTVSS
VL: QSVLTQPPSVSGSPGQRVTMSCTGSSSNIGAGYDVHWYQQVPGAAPRLLIYGTNNRPSGVPDRFSGSKSGTSASLTITGLQAEDEADYYCQSYDNSLTDPYVFGTGTKVTVL
B19: Ab_21 scFv-Fc (scFv, V domains shown)
VH: QVQLVQSGGGLVQPGGSLRLSCATSGFTFDDYAMHWVRQAPGKGLEWVSGISWNSGSIGYVDSVKGRFTISRDNRNNKVYLQMNNLRAEDTAVYYCARDWWGSIDHWGLGTLVTVSS
VL: QSALTQPRSVSGSPGQSVTISCTGTSSDVGGYDYVSWYQQHPGKAPKLIIYDVSKRPSGVPDRFSGSKSGNTASLTVSGLQAEDEADYYCSSYTSSSPVVFGGGTKLTVL
B20: Ab_17 scFv-Fc (scFv, V domains shown)
VH: QVQLVQSGGGVVQPGRSLRLSCAASGFTFDDYAMHWVRQVPGKGLEWVSGIDWNSGVIGYADSVKGRFTISRDNVKNSLYLQMNSLRTEDSALYYCAKDIGPGGSGSYYAFDIWGQGTTVTVSS
VL: QSALTQPASVSGSPGQSITISCTGTSSDVGGSKYVSWYQQHPGKAPKVMIYDVTKRPSGVPDRFSGSKSGNTASLTISGLQAEDEADYYCAAWDDSLNGVVFGGGTKLTVL

Tests used:
[1] = target: SARS-CoV-2 spike trimer, soluble (SARS-CoV-2)

| Binder | Kd (D614G Spike (SARS-CoV2)) [pM] | Response (D614G Spike (SARS-CoV2)) | Kd [1] [pM] | koff [1] [s⁻¹] | kon [1] [M⁻¹ s⁻¹] |
| --- | --- | --- | --- | --- | --- |
| B1 | 7.3 | 0.187 |  |  |  |
| B2 | 8.12 | 0.402 |  |  |  |
| B3 | 9.03 | 0.168 |  |  |  |
| B4 | 6.33 | 0.291 |  |  |  |
| B5 | 9.97 | 0.304 |  |  |  |
| B6 | 7.43 | 0.179 |  |  |  |
| B7 |  |  | < 1 | < 1e-07 | 4.31e+07 |
| B8 | 8.56 | 0.0425 |  |  |  |
| B9 | 9.41 | 0.199 |  |  |  |
| B10 | 9.93 | 0.116 |  |  |  |
| B11 | 8.64 | 0.19 |  |  |  |
| B12 | 1.04 | 0.202 |  |  |  |
| B13 | 8.1 | 0.107 |  |  |  |
| B14 | 8.82 | 0.162 |  |  |  |
| B15 | 10.9 | 0.237 |  |  |  |
| B16 | 7.53 | 0.276 |  |  |  |
| B17 | 7.26 | 0.204 |  |  |  |
| B18 | 8.35 | 0.434 |  |  |  |
| B19 | 8 | 0.228 |  |  |  |
| B20 | 6.8 | 0.357 |  |  |  |

From patent US20240409617A1
